From the supplement of paper PMC7877785
± gives the uncertainty stated by the source.

Test: self-splicing fitness, log relative to wild type (ln ratio); higher = more splicing; Tetrahymena group I intron in knt gene, E. coli kanamycin selection, DiMSum; sequences stand for … in CUCUCU…GGAGGGAAAAGUUAUCAGGCAUGCACCUGGUAGCUAGUCUUUAAACCAAUAGAUUGCAUCGGUUUAAAAGGCAAGACCGUCAAAUUGCGGGAAAGGGGUCAACAGCCGUUCAGUACCAAGUCUCAGGGGAAACUUUGAGAUGGCCUUGCAAAGGGUAUGGUAAUAAGCUGACGGACAUGGUCCUAACCACGCAGCCAAGUCCUAAGUCAACAGAUCUUCUGUUGAUAUGGAUGCAGUUCACAGACUAAAUGUCGGUCGGGGAAGAUGUAUUCUUCUCAUAAGAUAUAGUCGGACCUCUCCUUAAUGGGAGCUAGCGGAUGAAGUGAUGCAACACUGGAGCCGCUGGGAACUAAUUUGUAUGCGAAAGUAUAUUGAUUAGUUUUGGAGUACUCGUGGUCG
In short: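 A randomised library covering all eight P1ex-region intron nucleotides was built with the intron in the knt kanamycin-resistance gene on pET-22b(+) and held in E. coli BL21(DE3). Cells were grown overnight at 37°C or 30°C on LB agar, with or without 25 μg/mL kanamycin, plus 100 μg/mL carbenicillin, 50 μM IPTG and 0.2% rhamnose, and pooled colonies were amplicon-sequenced on an Illumina HiSeq 2500. DiMSum fitness is the error-weighted combination of wild-type-normalised replicate fold changes, kanamycin versus none.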

Sequence | self-splicing fitness (ln) (30 °C) | self-splicing fitness (ln) (37 °C)
CCCGAGCAAUAUUACGGCGG | -3.49 ± 0.23 | -1.66 ± 0.2
CCCGAGCAAUAUUACGGCUU | -3.29 ± 0.17 | -2.71 ± 0.2
CCCGAGCAAUAUUACGGGAA | -4.33 ± 0.29 | -2.39 ± 0.14
CCCGAGCAAUAUUACGGUAG | -3.16 ± 0.18 | -2.35 ± 0.17
CCCGAGCAAUAUUACGGUCU | -2.83 ± 0.21 | -1.85 ± 0.23
CCCGAGCAAUAUUACGUGCA | -3.5 ± 0.2 | -1.52 ± 0.15
CCCGAGCAAUAUUACGUGCC | -4.31 ± 0.3 | -3.26 ± 0.37
CCCGAGCAAUAUUACGUGGU | -4.96 ± 0.34 | -2.59 ± 0.19
CCCGAGCAAUAUUACGUGUA | -3.33 ± 0.2 | -2.97 ± 0.32
CCCGAGCAAUAUUACGUUAA | -2.82 ± 0.2 | -2.25 ± 0.16
CCCGAGCAAUAUUACGUUGU | -3.46 ± 0.14 | -2.73 ± 0.19
CCCUAGCAAUAUUACGACUU | -3.27 ± 0.23 | -2.7 ± 0.29
CCCUAGCAAUAUUACGAGAU | -3.88 ± 0.22 | -2.91 ± 0.24
CCCUAGCAAUAUUACGAUGG | -3.91 ± 0.2 | -1.79 ± 0.15
CCCUAGCAAUAUUACGCAAU | -3.56 ± 0.23 | -2.02 ± 0.27
CCCUAGCAAUAUUACGCCUG | -3.64 ± 0.23 | -3.11 ± 0.23
CCCUAGCAAUAUUACGCGGU | -3.75 ± 0.16 | -2.53 ± 0.18
CCCUAGCAAUAUUACGCGUU | -3.65 ± 0.19 | -2.72 ± 0.17
CCCUAGCAAUAUUACGCUAC | -2.96 ± 0.34 | -1.84 ± 0.43
CCCUAGCAAUAUUACGCUGC | -3.47 ± 0.32 | 
CCCUAGCAAUAUUACGGAAG | -4.09 ± 0.22 | -2.02 ± 0.19
CCCUAGCAAUAUUACGGACU | -3.48 ± 0.3 | -2 ± 0.32
CCCUAGCAAUAUUACGGAUA |  | -2.73 ± 0.26
CCCUAGCAAUAUUACGGCCC | -3.9 ± 0.27 | -0.5 ± 0.38
CCCUAGCAAUAUUACGGCUC | -4.27 ± 0.23 | -1.75 ± 0.14

Sequence | self-splicing fitness (ln) (30 °C) | self-splicing fitness (ln) (37 °C)
CCCUAGCAAUAUUACGGGCG | -1.68 ± 0.089 | -0.597 ± 0.1
CCCUAGCAAUAUUACGGGGA | -3.28 ± 0.23 | -2.41 ± 0.2
CCCUAGCAAUAUUACGGGUC | -3.26 ± 0.14 | -2.65 ± 0.2
CCCUAGCAAUAUUACGGUGA | -2.53 ± 0.11 | -1.23 ± 0.094
CCCUAGCAAUAUUACGUAGG | -2.61 ± 0.15 | -2.15 ± 0.29
CCCUAGCAAUAUUACGUAUG | -3.75 ± 0.2 | -3.63 ± 0.3
CCCUAGCAAUAUUACGUAUU | -3.8 ± 0.17 | -2.92 ± 0.18
CCGAAGCAAUAUUACGAACC | -3.42 ± 0.48 | 
CCGAAGCAAUAUUACGAAGG | -4.66 ± 0.46 | -2.15 ± 0.27
CCGAAGCAAUAUUACGAAUG | -0.621 ± 0.059 | -0.208 ± 0.076
CCGAAGCAAUAUUACGACCG | -0.936 ± 0.13 | -0.0137 ± 0.17
CCGAAGCAAUAUUACGAGCA | -2.35 ± 0.22 | -2.9 ± 0.36
CCGAAGCAAUAUUACGAGCG | -0.283 ± 0.087 | 0.807 ± 0.1
CCGAAGCAAUAUUACGAUCC | -3.91 ± 0.46 | -2.46 ± 0.45
CCGAAGCAAUAUUACGAUGA | -3.16 ± 0.26 | -2.24 ± 0.19
CCGAAGCAAUAUUACGAUUU | -1.44 ± 0.16 | -2.58 ± 0.24
CCGAAGCAAUAUUACGCAUC | -4.21 ± 0.34 | 
CCGAAGCAAUAUUACGCCCA | -2.41 ± 0.42 | 
CCGAAGCAAUAUUACGCCCG | -0.442 ± 0.13 | 0.42 ± 0.26
CCGAAGCAAUAUUACGCGUG | -3.05 ± 0.14 | -2.56 ± 0.13
CCGAAGCAAUAUUACGCGUU | -4.01 ± 0.16 | -2.4 ± 0.12
CCGAAGCAAUAUUACGCUCA | -3.65 ± 0.33 | -3.47 ± 0.42
CCGAAGCAAUAUUACGGAAC | -2.82 ± 0.28 | -2.03 ± 0.26
CCGAAGCAAUAUUACGGACA |  | -1.57 ± 0.2
CCGAAGCAAUAUUACGGAUA |  | -1.18 ± 0.2
